# Reference: patent publication US20220162320A1 (published 2022)
# B1: 4-G2(1H11)-hOKT3 (bispecific antibody)
# chain: not shown
# heavy: QVQLVQSGAEVKKPGASVKVSCKASGYTFTNYYMHWVRQAPGQGLEWMGMINPSGGGTSYAQKFQGRVTMTRDTSTSTVYMELSSLRSEDTAVYYCARGNPWELRLDYWGQGTLVTVSSGGGGSGGGGSGGGGSGGGGSDIQMTQSPSSLSASVGDRVTITCQASQDISNYLNWYQQKPGKAPKLLIYAASSLQSGVPSRFSGSGSGTDFTLTISSLQPEDFATYYCQQYYSYPFTFGPGTKVDIKGGGGSGGGGSQVQLVQSGAEVKKPGASVKVSCKASGYTFTRYTMHWVRQAPGQGLEWMGYINPSRGYTNYNQKFKDRVTLTTDKSSSTAYMELSSLRSEDTAVYYCARYYDDHYSLDYWGQGTLVTVSSASTKGPSVFPLAPSSKSTSGGTAALGCLVKDYFPEPVTVSWNSGALTSGVHTFPAVLQSSGLYSLSSVVTVPSSSLGTQTYICNVNHKPSNTKVDKRVEPKSCDKTHTCPPCPAPELLGGPSVFLFPPKPKDTLMISRTPEVTCVVVDVSHEDPEVKFNWYVDGVEVHNAKTKPREEQYQSTYRVVSVLTVLHQDWLNGKEYKCKVSNKALPAPIEKTISKAKGQPREPQVCTLPPSREEMTKNQVSLSCAVKGFYPSDIAVEWESNGQPENNYKTTPPVLDSDGSFFLVSKLTVDKSRWQQGNVFSCSVMHEALHNRFTQKSLSLSPGK
# light: DIQMTQSPSSLSASVGDRVTITCSASSSVSYMNWYQQKPGKAPKRLIYDTSKLASGVPSRFSGSGSGTDFTLTISSLQPEDFATYYCQQWSSNPFTFGQGTKLEIKRTVAAPSVFIFPPSDEQLKSGTASVVCLLNNFYPREAKVQWKVDNALQSGNSQESVTEQDSKDSTYSLSSTLTLSKADYEKHKVYACEVTHQGLSSPVTKSFNRGEC
# Columns and labels:
# [1] = biological target: T1, CD3 (reagent of the affinity experiments of Example 18) (UniProt P07766 23-126); assay: BLI
# T1 chain: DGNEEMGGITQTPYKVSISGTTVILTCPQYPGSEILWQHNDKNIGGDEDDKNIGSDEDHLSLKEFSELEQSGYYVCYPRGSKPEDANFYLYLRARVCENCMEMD
# [2] = biological target: T2, HLA-PEPTIDE target G2: HLA-A*01:01_…, recombinant soluble complex (human, enzymatically biotinylated (BirA)); assay: BLI
# [3] = biological target: T2, HLA-PEPTIDE target G2: HLA-A*01:01_…, …; assay: BLI; apparent KD (bivalent), avid
binder,measurement,setting,value
B1,Kd,[1],26.1 nM
same,Kd,[2],5.34 nM
same,Kd,[3],2.72 nM
